According to article PMC5014334:

Molecular target: glutathione-S-transferase (GST)-CDK1 fusion protein (not stated (amplified from RNA of Vero cells; African green monkey from memory))

Q: With “TrxA-His-p17 fusion protein (natural protein)” as the substance, how does the in vitro kinase assay: vimentin-Ser 56 phosphorylation of GST-vimentin (2 μM) by GST-CDK1 (10 nM) and GST-cyclin B1 (10 nM) with increasing TrxA-His-p17; Ki of p17 read?
A: The in vitro kinase assay: vimentin-Ser 56 phosphorylation of GST-vimentin (2 μM) by GST-CDK1 (10 nM) and GST-cyclin B1 (10 nM) with increasing TrxA-His-p17; Ki of p17 was 100 nM.
